According to the supplement of paper PMC9170038:

System: MS2 coat protein
Assay: apparent KD of MS2 coat protein; higher = weaker reporter binding
Conditions: Eterna round: R107
In short: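 Designed RNA switches, transcribed on-chip from Illumina sequencing clusters, were titrated with SNAP-549-labelled MS2 coat protein from 0.7 or 1.5 nM to 3 µM in twofold steps. The solution was 100 mM Tris-HCl pH 7.5, 80 mM KCl, 4 mM MgCl2, with constant ligand or without it. Apparent KD is the median over each design's normalised cluster binding-curve fits.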

[1] = input ligand: theophylline 20 uM
[2] = input ligand: theophylline 2 mM
[3] = input ligand: tryptophan 2.4 mM

Sequence	apparent KD of MS2 coat protein (input ligand: arginine 13.2 mM) [nM]	apparent KD of MS2 coat protein (input ligand: none) [nM]	apparent KD of MS2 coat protein [1] [nM]	apparent KD of MS2 coat protein [2] [nM]	apparent KD of MS2 coat protein [3] [nM]
GCACGACAUGAGGAUCACCCAUGUGCAGAUACCAGUAGGAUAUCCUACCCUUGGCAGCUGAGUAGAUCUGGAGGACUAUAGGUAA [Same State Theophylline A GF9]	15.5	17.9	23	21.2	18.3
UGUAUGUGAUCUGAUACCAGAGUGACGCGAAAGCGAUAACCUGAGGAUCACCCUGGUAAACUCCCUUGGCAGCAGAUCGCAUACU	53.7	75.3	60.2	24	79.7
AGAGCAUUGACGGCCGCCACUUAUGUCACAUGAGGAUCACCCAUGUGAUGGGUGAUAGCCCGGUUGAGGACCGGGUCAAUGCUCA [Omei Tryp SS B v6]	14.8		18.5	15.2	
GCUGGGUGCGCAAGGACCUGGCGUUGCGAUACCAGCACGGUAACGUGCCCUUGGCAGCGCACAUGAGGAUCACCCAUGUGGUGUU [#1 Exclusion - Theophylline A Attempt #19 (HarryS)]	62.8		360		221
UGGGUACAUGAGGAUCACCCAUGUACUGAAGGAGCGGGACGAAUCUCAGGUAGGUCGCAGACAUGAGGAUCACCCAUGUAGUGGA [Exclusion Arginine A GF 15]	13.9	15.9	17.8	17.2	14.6
UGGGUCGGAUGAGUAAAUUGUCGGACUCAUCGAGGACCGGUACGGCCGCCACUCGGUUGUACAUGAGGAUCACCCAUGUCAGGGU [#1 Same State - Tryptophan A Attempt #17 (HarryS)]	47.4		336	749	
ACAUGAAGAACAGCGGUGGGCGCGCUCGAUACCAGUACUUUGAAAUACCCUUGGCAGCGACAUGAGGAUCACCCAUGUGAGAUGA [XTheo A #3]	13	16.6	25.6	49.5	15.7
UGAUGGUACGGAAGGAGCGUGUAAGAACAAGAACAUGAGGAUCACCCAUGUAUUAAUUUAACACAGGUAGGUCGCCGAGUUAUUG [11.G]	17.8	17.3	26.7	23.2	16.5
UAGAAGAACAUGCGGGCUCCGGACGGUGAUACCAGAUCGAAAAGGAUCCCUUGGCAGCACUGCACAUGAGGAUCACCCAUGUGCA [theeternabot_exclusion_MS2_Theo_A_7]	11.8		11		10.1
AAACAUGAGGAUCACCCAUGUAAUUCAGAAGGAGCGUCAUUAUUGACAGGUAGGUCGCUGAUAAAAUUUCUAUACAUCAUGUAUA [JR_SSArginiA_Sub013]	11.9	12.4	15.7	13	13.3
ACAUGAAGAUUAAUCGUGGGCAUACUCGAUACCAGUAUUUUAACCUACCCUUGGCAGCGACAUGAGGAUCACCCAUGUGAGAUGA [XTheo A #8]	19.9		23.5		22.8
GAUGAACUAUUUGAUACCAGACUACAUGAGGAUCACCCAUGUGAGUUUCGUCCUCUGCCAGUCCCUUGGCAGCAAAUAGUUUAUC [XTheo B #8]	15.8		36.7		14.3
CGGUAACCACAUGAGGAUCACCCAUGUGAAGGAGCGGCGAAUAAGCCAGGUAGGUCGCGCAUGAAUAAAUCAUGUUGGUGCCGAA [XArg-A 16 NuPack]	31.9	45.7	121	64.5	31
UGUAGUACCAGACAUGAGGAUCACCCAUGUCGAGGACCGGUACGGCCGCCACUCGGCAGUUUGCGUCCUCAGGUACUCCGGGUAA [Dianreti]	14.4		18.5	14.9	
CUUGAUAACUGAAGGAGCGAGAAACCCUACAUGAGGAUCACCCAUGUAUACACGGGAACUUCUCAGGUAGGUCGCAGUAUGUCAA [Teveor]	90.6	54.4	89.3	165	71.5
ACACAUGAGGAUCACCCAUGUGCGCUGGAAGGAGCGCAGAAUCAUGCAGGUAGGUCGCCAGUGCCCAUUACUAGAGGGAUAAGAG [Onriri]	44.5	75.8	101	102	64.6
AUCCUCUAGAAUGAUACCAGACCAAACAUGAGGAUCACCCAUGUAUCAGGCAAUUGUUACGUCCCUUGGCAGCAUGUAUGCCGAC [Theo B SS t3]	17.7		31.5		20.2
AUUCCAUAGGUGCAGUUGUUAAAUGGCGAUACCAGCGUGGAAACACGCCCUUGGCAGCGCCAAAACAUGAGGAUCACCCAUGUUA [Kladno]	48.3		111		94.8
UGCAAAUGAUGAGAUACCAGUUCAGUUAAAUACAUGAGGAUCACCCAUGUCAGGGAACUCAACCCUUGGCAGCUCGAUGCACUCA [theeternabot_sameState_MS2_Theo_B_43]	48		56.7		59
UCCUCAUGGCAUGAUACCAGACCUAACAUGAGGAUCACCCAUGUAUCAGGCAAUUGUUACGUCCCUUGGCAGCAUGUAUGCCGAC [Theo B SS t4]	33.6		91.1		60.8
CAUCAUGGGCUUGGACAAAUUGUGCUUGAUACCAGAAAUCACCGGUUCCCUUGGCAGCAACCCACAUGAGGAUCACCCAUGUGGA [theeternabot_exclusion_MS2_Theo_A_4]	18.6		20.1		23
CAACUGCUUGAGCUUACUUAUUGGACUUCCCGAGGACCGGUACGGCCGCCACUCGCAGGGACACAUGAGGAUCACCCAUGUAAAG [theeternabot_exclusion_MS2_Trp_A_42]	17.3		21.1	19.6	
GGAUAGGACACGGCCGCCACUAGCUAGGAUACUAGCAACAUUUCCUCAUAUGAGGAUCACCCAUAUAGGACCGGGUGUCCUAUCG	215	376	389	471	1140
CGAUCUUUCGAAAGAAGGAUCUUGUCUGAUACCAGAGACGAAAGUCUCCCUUGGCAGCAGUGCCAACAUGAGGAUCACCCAUGUU [Theophylline A 11]	16		17.6		15.5
AAGGAACAUGAGGAUCACCCAUGUACCGAAGGAGCGGCAGAGAUGCCAGGUAGGUCGCGGUACUUGCCGGGUCAUUCAUGCAGAG [Arraiste]	39.1	26.3	30.6	32.8	23.9
AAUUAUCAGUCGGCCGCCACUGACACAUGAGGAUCACCCAUGUAAUAUGGGUAAAAUUAACUGAACAGGACCGGGACAAAUGCUA [JR_SSTryptoB_Sub021]	135		472	803	
AGUUGCGUUGGAAGGAGCGGCAUGUGUGGGCCUCCUUACAAUACAUGAGGAUCACCCAUGUGCCAGGUAGGUCGCCAACACAGGU [Tiedmaqu]	47.9	40.2	79.8	96	54.8
AAGCGGGCGACGGCCGCCACUUGCCUGUAAUUAGAGAAGGCACAUGAGGAUCACCCAUGUCCCGCAAGGACCGGGUUGCCUCACU [Ditiraorce]	93.6		484	580	
AUAUUUAACGGAAGGAGCGCGGAUAAUAAAGUGGGUAAACAUGAGGAUCACCCAUGUAAACCGCAGGUAGGUCGCCGAUAUAUAU [AstrosEXyARgB#7]	26.4	63.6	54.8	51.2	41.4
